Publication PMC6101569 (Nucleic Acids Research, 2018)

Key:
[1] = target: (H3-H4)2 histone tetramer from Drosophila melanogaster (Drosophila melanogaster, UniProt P02299 2-136; P84040 2-103); assay: ITC
[2] = target: H2A-H2B histone dimer from Drosophila melanogaster (Drosophila melanogaster, UniProt P84051 2-121; P02283 2-123); assay: ITC

Kd [1]: 3.81 µM
Kd [2]: 0.94 µM
B1: APLF acidic domain (APLF^AD), Homo sapiens APLF residues 450-511, wild type (domain or fragment)
chain: DEDNDNVGQPNEYDLNDSFLDDEEEDYEPTDEDSDWEPGKEDEEKEDVEELLKEAKRFMKRK
